# Source: US20260365708 (published 2026)
# T1: hIL10RalphaFc (human, UniProt Q13651)
# T1 chain: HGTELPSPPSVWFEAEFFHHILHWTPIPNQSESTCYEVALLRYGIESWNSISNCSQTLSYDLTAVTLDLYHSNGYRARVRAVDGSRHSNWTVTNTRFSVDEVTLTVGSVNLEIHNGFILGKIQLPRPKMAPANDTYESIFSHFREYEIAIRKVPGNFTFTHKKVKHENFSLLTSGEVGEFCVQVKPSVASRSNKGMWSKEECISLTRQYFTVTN
# T2: mIL10RalphaFc (mouse, UniProt Q61727)
# T2 chain: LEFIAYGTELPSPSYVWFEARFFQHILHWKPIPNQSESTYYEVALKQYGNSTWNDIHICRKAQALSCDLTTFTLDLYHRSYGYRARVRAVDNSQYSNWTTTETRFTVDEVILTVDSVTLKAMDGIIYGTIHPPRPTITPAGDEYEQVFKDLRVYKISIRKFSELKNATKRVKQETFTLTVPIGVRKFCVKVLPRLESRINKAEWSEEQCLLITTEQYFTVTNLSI
# Biological target: T1, hIL10RalphaFc
# Assay: SPR
row,Binder,Kd [pM]
1,hIL10 T100L (protein) SPGQGTQSENSCTHFPGNLPNMLRDLRDAFSRVKTFFQMKDQLDNLLLKESLLEDFKGYLGCQALSEMIQFYLEEVMPQAENQDPDIKAHVNSLGENLKLLRLRLRRCHRFLPCENKSKAVEQVKNAFNKLQEKGIYKAMSEFDIFINYIEAYMTMKIRN,260
2,hIL10 WT (protein) SPGQGTQSENSCTHFPGNLPNMLRDLRDAFSRVKTFFQMKDQLDNLLLKESLLEDFKGYLGCQALSEMIQFYLEEVMPQAENQDPDIKAHVNSLGENLKTLRLRLRRCHRFLPCENKSKAVEQVKNAFNKLQEKGIYKAMSEFDIFINYIEAYMTMKIRN,60
3,h_SS0052_AA (hIL10 WT fused) (protein) SPGQGTQSENSCTHFPGNLPNMLRDLRDAFSRVKTFFQMKDQLDNLLLKESLLEDFKGYLGCQALSEMIQFYLEEVMPQAENQDPDIKAHVNSLGENLKTLRLRLRRCHRFLPCENKSKAVEQVKNAFNKLQEKGIYKAMSEFDIFINYIEAYMTMKIRNSPGQGTQSENSCTHFPGNLPNMLRDLRDAFSRVKTFFQMKDQLDNLLLKESLLEDFKGYLGCQALSEMIQFYLEEVMPQAENQDPDIKAHVNSLGENLKTLRLRLRRCHRFLPCENKSKAVEQVKNAFNKLQEKGIYKAMSEFDIFINYIEAYMTMKIRN,110
4,h_SS0053_AA (hIL10 T100L fused) (protein) SPGQGTQSENSCTHFPGNLPNMLRDLRDAFSRVKTFFQMKDQLDNLLLKESLLEDFKGYLGCQALSEMIQFYLEEVMPQAENQDPDIKAHVNSLGENLKLLRLRLRRCHRFLPCENKSKAVEQVKNAFNKLQEKGIYKAMSEFDIFINYIEAYMTMKIRNSPGQGTQSENSCTHFPGNLPNMLRDLRDAFSRVKTFFQMKDQLDNLLLKESLLEDFKGYLGCQALSEMIQFYLEEVMPQAENQDPDIKAHVNSLGENLKLLRLRLRRCHRFLPCENKSKAVEQVKNAFNKLQEKGIYKAMSEFDIFINYIEAYMTMKIRNGGSHHHHHHHH,70

# Biological target: T2, mIL10RalphaFc
# Assay: SPR
row,Binder,Kd [pM]
1,WC163_AA (mIL10 WT fused) (protein) GNCTHFPVGQSHMLLELRTAFSQVKTFFQTKDQLDNILLTDSLMQDFKGYLGCQALSEMIQFYLVEVMPQAEKHGPEIKEHLNSLGEKLKTLRMRLRRCHRFLPCENKSKAVEQVKSDFNKLQDQGVYKAMNEFDIFINCIEAYMMIKMKSSRGQYSREDNQYSREDNSCTHFPVGQSHMLLELRTAFSQVKTFFQTKDQLDNILLTDSLMQDFKGYLGCQALSEMIQFYLVEVMPQAEKHGPEIKEHLNSLGEKLKTLRMRLRRCHRFLPCENKSKAVEQVKSDFNKLQDQGVYKAMNEFDIFINCIEAYMMIKMKS,860
2,SS0051_AA (mIL10 T100L fused) (protein) GNCTHFPVGQSHMLLELRTAFSQVKTFFQTKDQLDNILLTDSLMQDFKGYLGCQALSEMIQFYLVEVMPQAEKHGPEIKEHLNSLGEKLKLLRMRLRRCHRFLPCENKSKAVEQVKSDFNKLQDQGVYKAMNEFDIFINCIEAYMMIKMKSSRGQYSREDNQYSREDNSCTHFPVGQSHMLLELRTAFSQVKTFFQTKDQLDNILLTDSLMQDFKGYLGCQALSEMIQFYLVEVMPQAEKHGPEIKEHLNSLGEKLKLLRMRLRRCHRFLPCENKSKAVEQVKSDFNKLQDQGVYKAMNEFDIFINCIEAYMMIKMKS,730

# The remaining lines, values ahead:
row,Kd [pM],Binder
1,810,mIL10 WT (protein) SRGQYSREDNNCTHFPVGQSHMLLELRTAFSQVKTFFQTKDQLDNILLTDSLMQDFKGYLGCQALSEMIQFYLVEVMPQAEKHGPEIKEHLNSLGEKLKTLRMRLRRCHRFLPCENKSKAVEQVKSDFNKLQDQGVYKAMNEFDIFINCIEAYMMIKMKS
2,1920,mIL10 T100L (protein) SRGQYSREDNNCTHFPVGQSHMLLELRTAFSQVKTFFQTKDQLDNILLTDSLMQDFKGYLGCQALSEMIQFYLVEVMPQAEKHGPEIKEHLNSLGEKLKLLRMRLRRCHRFLPCENKSKAVEQVKSDFNKLQDQGVYKAMNEFDIFINCIEAYMMIKMKS
